# Laboratory results reported in paper PMC10786891, “Massively parallel profiling of RNA-targeting CRISPR-Cas13d”.
# Residue numbers refer to the chain shown, from its start. Names may count otherwise.
# T1: EsCas13d, nuclease-dead (Eubacterium siraeum, UniProt B0MS50, R295A;H300A;R849A;H854A)
# T1 sequence: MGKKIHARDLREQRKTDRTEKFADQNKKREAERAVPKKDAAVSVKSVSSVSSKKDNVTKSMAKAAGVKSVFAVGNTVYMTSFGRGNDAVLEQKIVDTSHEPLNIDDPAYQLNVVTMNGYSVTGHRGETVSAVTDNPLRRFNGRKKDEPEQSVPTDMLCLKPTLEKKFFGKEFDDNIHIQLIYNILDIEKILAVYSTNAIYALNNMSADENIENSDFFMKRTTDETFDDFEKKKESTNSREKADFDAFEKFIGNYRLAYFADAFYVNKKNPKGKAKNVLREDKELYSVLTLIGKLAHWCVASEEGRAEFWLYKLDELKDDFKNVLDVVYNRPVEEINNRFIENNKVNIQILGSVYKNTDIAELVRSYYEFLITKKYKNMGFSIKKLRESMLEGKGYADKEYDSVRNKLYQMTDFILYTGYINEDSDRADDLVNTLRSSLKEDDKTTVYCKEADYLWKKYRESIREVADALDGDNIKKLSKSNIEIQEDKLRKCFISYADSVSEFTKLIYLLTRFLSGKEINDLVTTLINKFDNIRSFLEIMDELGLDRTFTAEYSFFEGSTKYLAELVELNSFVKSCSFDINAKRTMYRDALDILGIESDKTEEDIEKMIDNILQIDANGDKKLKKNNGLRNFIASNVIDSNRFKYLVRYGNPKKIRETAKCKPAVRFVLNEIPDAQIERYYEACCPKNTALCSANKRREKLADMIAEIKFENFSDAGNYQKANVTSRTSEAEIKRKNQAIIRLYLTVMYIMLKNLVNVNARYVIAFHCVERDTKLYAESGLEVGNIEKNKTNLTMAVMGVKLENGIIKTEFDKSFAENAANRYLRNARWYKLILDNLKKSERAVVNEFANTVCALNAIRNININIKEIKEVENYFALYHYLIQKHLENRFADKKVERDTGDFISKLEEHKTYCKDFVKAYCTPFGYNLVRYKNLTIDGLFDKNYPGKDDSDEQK
# B1: target 2 MT 5'PFS GGC 3'PFS UAA (mixed)
# RNA 1: CACCCGUGCAAAAUUGCAGGGGUCUAAAACCUUCUCCAAAUUGUUUCAUCCU
# RNA 2: GGGAAUGGAUCCACAUCUACGAAUUCGGCAGGAUGAAACAAUUUGGAGAAGUAAAGAUCGGAAGAGCACACGU
# B2: target 2 MT 5'PFS AAG 3'PFS CGA (mixed)
# RNA 1: B1 RNA 1
# RNA 2: B1 RNA 2 with G27A, G28A, C29G, U52C, A53G
# B3: target 2 MT 5'PFS GGG 3'PFS AUC (mixed)
# RNA 1: B1 RNA 1
# RNA 2: B1 RNA 2 with C29G, U52A, A53U, A54C
# B4: target 2 MT 5'PFS UAU 3'PFS ACU (mixed)
# RNA 1: B1 RNA 1
# RNA 2: B1 RNA 2 with G27U, G28A, C29U, U52A, A53C, A54U
# B5: target 2 MT 5'PFS AAG 3'PFS AGA (mixed)
# RNA 1: B1 RNA 1
# RNA 2: B1 RNA 2 with G27A, G28A, C29G, U52A, A53G
# B6: target 2 MT 5'PFS GAA 3'PFS UAA (mixed)
# RNA 1: B1 RNA 1
# RNA 2: B1 RNA 2 with G28A, C29A
# B7: target 2 MT 5'PFS GAA 3'PFS UAC (mixed)
# RNA 1: B1 RNA 1
# RNA 2: B1 RNA 2 with G28A, C29A, A54C
# B8: target 2 MT 5'PFS GGG 3'PFS AUU (mixed)
# RNA 1: B1 RNA 1
# RNA 2: B1 RNA 2 with C29G, U52A, A53U, A54U
# B9: target 2 MT 5'PFS UUG 3'PFS UAC (mixed)
# RNA 1: B1 RNA 1
# RNA 2: B1 RNA 2 with G27U, G28U, C29G, A54C
# B10: target 2 MT 5'PFS AAA 3'PFS AUC (mixed)
# RNA 1: B1 RNA 1
# RNA 2: B1 RNA 2 with G27A, G28A, C29A, U52A, A53U, A54C
# B11: target 2 MT 5'PFS CAC 3'PFS CAU (mixed)
# RNA 1: B1 RNA 1
# RNA 2: B1 RNA 2 with G27C, G28A, U52C, A54U
# B12: target 2 MT 5'PFS GCU 3'PFS CGC (mixed)
# RNA 1: B1 RNA 1
# RNA 2: B1 RNA 2 with G28C, C29U, U52C, A53G, A54C
# B13: target 2 MT 5'PFS UUG 3'PFS UAU (mixed)
# RNA 1: B1 RNA 1
# RNA 2: B1 RNA 2 with G27U, G28U, C29G, A54U
# B14: target 2 MT 5'PFS AAG 3'PFS CGG (mixed)
# RNA 1: B1 RNA 1
# RNA 2: B1 RNA 2 with G27A, G28A, C29G, U52C, A53G, A54G
# B15: target 2 MT 5'PFS GAA 3'PFS UAU (mixed)
# RNA 1: B1 RNA 1
# RNA 2: B1 RNA 2 with G28A, C29A, A54U
# B16: target 2 MT 5'PFS CAG 3'PFS UCC (mixed)
# RNA 1: B1 RNA 1
# RNA 2: B1 RNA 2 with G27C, G28A, C29G, A53C, A54C
# B17: target 2 MT 5'PFS GGG 3'PFS AUG (mixed)
# RNA 1: B1 RNA 1
# RNA 2: B1 RNA 2 with C29G, U52A, A53U, A54G
# B18: target 2 MT 5'PFS CAU 3'PFS AGG (mixed)
# RNA 1: B1 RNA 1
# RNA 2: B1 RNA 2 with G27C, G28A, C29U, U52A, A53G, A54G
# B19: target 2 MT 5'PFS GGG 3'PFS AUA (mixed)
# RNA 1: B1 RNA 1
# RNA 2: B1 RNA 2 with C29G, U52A, A53U
# B20: target 2 MT 5'PFS AAA 3'PFS AUU (mixed)
# RNA 1: B1 RNA 1
# RNA 2: B1 RNA 2 with G27A, G28A, C29A, U52A, A53U, A54U
# B21: target 2 MT 5'PFS ACA 3'PFS CUU (mixed)
# RNA 1: B1 RNA 1
# RNA 2: B1 RNA 2 with G27A, G28C, C29A, U52C, A53U, A54U
# B22: target 2 MT 5'PFS UUG 3'PFS UAG (mixed)
# RNA 1: B1 RNA 1
# RNA 2: B1 RNA 2 with G27U, G28U, C29G, A54G
# B23: target 2 MT 5'PFS UAU 3'PFS ACG (mixed)
# RNA 1: B1 RNA 1
# RNA 2: B1 RNA 2 with G27U, G28A, C29U, U52A, A53C, A54G
# B24: target 2 MT 5'PFS ACA 3'PFS CUC (mixed)
# RNA 1: B1 RNA 1
# RNA 2: B1 RNA 2 with G27A, G28C, C29A, U52C, A53U, A54C
# B25: target 2 MT 5'PFS AAG 3'PFS AGG (mixed)
# RNA 1: B1 RNA 1
# RNA 2: B1 RNA 2 with G27A, G28A, C29G, U52A, A53G, A54G
# B26: target 2 MT 5'PFS CAC 3'PFS CAG (mixed)
# RNA 1: B1 RNA 1
# RNA 2: B1 RNA 2 with G27C, G28A, U52C, A54G
# B27: target 2 MT 5'PFS AAG 3'PFS AGC (mixed)
# RNA 1: B1 RNA 1
# RNA 2: B1 RNA 2 with G27A, G28A, C29G, U52A, A53G, A54C
# B28: target 2 MT 5'PFS UUG 3'PFS UAA (mixed)
# RNA 1: B1 RNA 1
# RNA 2: B1 RNA 2 with G27U, G28U, C29G
# B29: target 2 MT 5'PFS UGG 3'PFS UAC (mixed)
# RNA 1: B1 RNA 1
# RNA 2: B1 RNA 2 with G27U, C29G, A54C
# B30: target 2 MT 5'PFS AAG 3'PFS CGC (mixed)
# RNA 1: B1 RNA 1
# RNA 2: B1 RNA 2 with G27A, G28A, C29G, U52C, A53G, A54C
# B31: target 1 A1G,A9C (mixed)
# RNA 1: CACCCGUGCAAAAAUGCAGGGGUCUAAAACUGAGCGGAUAACCUCUCUAUGG
# RNA 2: GGGAAUGGAUCCACAUCUACGAAUUCGUACCAUAGAGAGGUUCUCCGCUCGCCGAGAUCGGAAGAGCACACGU
# B32: target 1 C7A,A18C (mixed)
# RNA 1: B31 RNA 1
# RNA 2: B31 RNA 2 with A34C, C43A, C45A, G51A
# B33: target 1 insU 3' of 15,insA 3' of 8 (mixed)
# RNA 1: B31 RNA 1
# RNA 2: GGGAAUGGAUCCACAUCUACGAAUUCGUACCAUAGAGUAGGUUAUACCGCUCACCGAGAUCGGAAGAGCACACGU
# Target: T1, EsCas13d, nuclease-dead
# Assay: crRNA (strand 1, pre-loaded); Mg2+; 40 mM Tris-HCl pH 7.5, 150 mM NaCl, 6 mM MgCl2, 1 mM DTT, 0.1% Tween-20, 0.2 mg/ml BSA; 25 C; 10 min per concentration, then washed
# Details: tags: His6-TwinStrep-SUMO cleaved; N-terminal SNAP kept (SNAP-Surface 488); label: 3' end held by stalled T7 RNA polymerase
row,Binder,Kd
1,B1,9.4 ± 1.2 nM
2,B2,4.5 ± 0.5 nM
3,B3,8.5 ± 0.8 nM
4,B4,76 ± 25 nM
5,B5,2.5 ± 0.28 nM
6,B6,7.3 ± 1.5 nM
7,B7,12 ± 4 nM
8,B8,9 ± 0.8 nM
9,B9,14.3 ± 1.2 nM
10,B10,3.6 ± 0.7 nM
11,B11,3.5 ± 0.4 nM
12,B12,12.1 ± 1.3 nM
13,B13,8.6 ± 0.8 nM
14,B14,3.4 ± 0.5 nM
15,B15,7.8 ± 1 nM
16,B16,29 ± 8 nM
17,B17,9.2 ± 0.6 nM

row,Binder,Kd
1,B18,2.8 ± 0.4 nM
2,B19,7.1 ± 0.5 nM
3,B20,5.2 ± 1 nM
4,B21,12 ± 4 nM
5,B22,10.9 ± 1.2 nM
6,B23,58 ± 6 nM
7,B24,6.7 ± 1 nM
8,B25,5.7 ± 1 nM
9,B26,1.3 ± 0.23 nM
10,B27,3.7 ± 0.4 nM
11,B28,12.8 ± 2 nM
12,B29,8.6 ± 0.9 nM
13,B30,3.34 ± 0.31 nM
14,B31,13.7 ± 2.3 nM
15,B32,70 ± 6 nM
16,B33,16.8 ± 2 nM
